This test deals with T1, mouse IL18BPd-Fc (mouse, UniProt Q9Z0M9 29-193).
T1 sequence: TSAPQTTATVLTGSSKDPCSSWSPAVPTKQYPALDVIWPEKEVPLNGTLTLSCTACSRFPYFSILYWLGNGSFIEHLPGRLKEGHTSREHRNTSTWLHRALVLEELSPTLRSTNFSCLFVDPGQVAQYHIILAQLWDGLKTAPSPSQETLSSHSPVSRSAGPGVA
In words: KinExA. A general note: Kinetic exclusion samples the free partner from a solution-phase mixture.

B1: mouse IL18 (ligand)
chain: NFGRLHCTTAVIRNINDQVLFVDKRQPVFEDMTDIDQSASEPQTRLIIYMYKDSEVRGLAVTLSVKDSKMSTLSCKNKIISFEEMDPPENIDDIQSDLIFFQKRVPGHNKMEFESSLYEGHFLACQKEDDAFKLILKKKDENGDKSVMFTLTNLHQS
For orientation: Kd means the constant that tells how readily two partners part at equilibrium. The low end stands for a tighter complex, the high end for a looser complex. B1 showed a Kd of 3.7 pM.

These data come from PMC11148541 (Cancer Immunology Research, 2024).
